Laboratory results taken from patent US20120034651A1 (JAPAN SCIENCE AND TECHNOLOGY AGENCY, published 2012).

Target: the molecule itself
Experiment: not described in this filing

B1: 36-38A TCL1 (other, human, UniProt P56279 1-114, looked up)
chain: MAECPTLGEAVTDHPDRLWAWEKFVYLDEKQHAWLAAAIEIKDRLQLRVLLRREDVVLGRPMTPTQIGPSLLPIMWQLYPDGRYRSSDSSFWRLVYHIKIDGVEDMLLELLPDD
binding result: no binding
